# Test results as given in paper PMC3092483.
# What was measured:
# [1] = biological target: GST-C2AB fusion protein of synaptotagmin I with the syt^B-IE mutation (I420E) (Drosophila); test: pull-down
# [2] = biological target: GST-C2B fusion protein of synaptotagmin I with the syt^B-IE mutation (I420E) (Drosophila); test: pull-down
# [3] = biological target: GST-C2AB fusion protein of synaptotagmin I (wild type) (Drosophila); test: pull-down
# [4] = biological target: GST-C2B fusion protein of synaptotagmin I (wild type) (Drosophila); test: pull-down
# full length t-SNAREs = test: co-flotation
Substance,fold increase of binding by Ca2+ over EGTA [1],increase of binding by Ca2+ over EGTA [1],increase of binding by Ca2+ over EGTA [2],fold increase of binding by Ca2+ over EGTA [3],increase of binding by Ca2+ over EGTA [3],increase of binding by Ca2+ over EGTA [4],percent of wild type binding (% of wild type levels) (full length t-SNAREs)
full length t-SNAREs (complex),4.5 fold,0.112 units,0.105 units,2.4 fold,0.2 units,0.116 units,
"synaptotagmin C2AB domain with the syt^B-IE mutation (I420E), as used in the co-flotation assay (domain or fragment)",,,,,,,70
